Data as given in patent US20250171545A1.

Target: hFGFR1c and hKLB co-expressed on HEK293 cells (human) (UniProt P11362)
Test: cell-based or functional assay

% activation, SRE-luciferase reporter, normalized against soluble FGF21: 19%
Substance: REGN4366 (bispecific antibody)
